Among the data in paper PMC10185811 are response values, retold here.

One assay addresses T1, GST-NUB1L, Q9Y5A7-1.
T1 chain: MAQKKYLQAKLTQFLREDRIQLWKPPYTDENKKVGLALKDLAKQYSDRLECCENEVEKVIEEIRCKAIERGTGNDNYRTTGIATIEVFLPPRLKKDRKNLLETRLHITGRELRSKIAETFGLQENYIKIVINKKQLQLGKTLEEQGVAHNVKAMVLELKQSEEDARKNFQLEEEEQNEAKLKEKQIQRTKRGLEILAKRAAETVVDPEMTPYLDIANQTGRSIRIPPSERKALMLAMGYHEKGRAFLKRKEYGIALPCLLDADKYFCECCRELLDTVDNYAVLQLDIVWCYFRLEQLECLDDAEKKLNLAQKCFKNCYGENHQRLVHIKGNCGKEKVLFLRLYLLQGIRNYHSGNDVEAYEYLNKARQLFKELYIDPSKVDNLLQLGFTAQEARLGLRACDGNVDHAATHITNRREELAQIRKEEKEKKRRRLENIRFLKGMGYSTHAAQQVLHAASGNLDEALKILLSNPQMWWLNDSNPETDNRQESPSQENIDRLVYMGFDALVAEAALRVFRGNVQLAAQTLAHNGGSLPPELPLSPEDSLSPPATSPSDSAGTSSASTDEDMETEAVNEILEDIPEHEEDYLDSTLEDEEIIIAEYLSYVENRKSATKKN
As to the kind of experiment: Octet (BLI). As to conditions: chain shown with the change; GST-NUB1L on the sensor; His6-RPN1 variant in solution; parent: est. 0.58; read off a plot. On the technique in general: BLI is a label-free optical method that tracks binding on a fibre tip over time.

A further assay has as its target T2, GST-RAD23, P54727.
T2 chain: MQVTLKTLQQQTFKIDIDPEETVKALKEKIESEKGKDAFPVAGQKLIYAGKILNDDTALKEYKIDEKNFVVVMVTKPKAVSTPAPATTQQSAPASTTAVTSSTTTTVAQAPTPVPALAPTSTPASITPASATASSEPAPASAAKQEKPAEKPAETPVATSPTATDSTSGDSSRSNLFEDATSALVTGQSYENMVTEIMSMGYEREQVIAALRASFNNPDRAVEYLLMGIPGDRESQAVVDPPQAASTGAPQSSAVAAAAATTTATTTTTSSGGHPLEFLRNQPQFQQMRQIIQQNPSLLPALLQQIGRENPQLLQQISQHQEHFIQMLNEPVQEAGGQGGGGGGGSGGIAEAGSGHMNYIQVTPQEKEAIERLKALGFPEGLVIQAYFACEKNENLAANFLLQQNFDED
The experiment in a line: Octet (BLI). Conditions: chain shown with the change; GST-RAD23 on the sensor; GST control curve in the same panel reaches est. 0.13 nm; read off a plot.

Residue numbers refer to the chain shown, from its start.

B1: His6-RPN1 WT, Q13200 T2 (protein)
chain: MEEGGRDKAPVQPQQSPAAAPGGTDEKPSGKERRDAGDKDKEQELSEEDKQLQDELEMLVERLGEKDTSLYRPALEELRRQIRSSTTSMTSVPKPLKFLRPHYGKLKEIYENMAPGENKRFAADIISVLAMTMSGERECLKYRLVGSQEELASWGHEYVRHLAGEVAKEWQELDDAEKVQREPLLTLVKEIVPYNMAHNAEHEACDLLMEIEQVDMLEKDIDENAYAKVCLYLTSCVNYVPEPENSALLRCALGVFRKFSRFPEALRLALMLNDMELVEDIFTSCKDVVVQKQMAFMLGRHGVFLELSEDVEEYEDLTEIMSNVQLNSNFLALARELDIMEPKVPDDIYKTHLENNRFGGSGSQVDSARMNLASSFVNGFVNAAFGQDKLLTDDGNKWLYKNKDHGMLSAAASLGMILLWDAKGGLAAIDKYLYSSEDYIKSGALLACGIVNSGVRNECDPALALLSDYVLHNSNTMRLGSIFGLGLAYAGSNREDVLTLLLPVMGDSKSSMEVAGVTALACGMIAVGSCNGDVTSTILQTIMEKSETELKDTYARWLPLGLGLNHLGKGEAIEAILAALEVVSEPFRSFANTLVDVCAYAGSGNVLKVQQLLHICSEHFDSKEKEEDKDKKEKKDKDKKEAPADMGAHQGVAVLGIALIAMGEEIGAEMALRTFGHLLRYGEPTLRRAVPLALALISVSNPRLNILDTLSKFSHDADPEVSYNSIFAMGMVGSGTNNARLAAMLRQLAQYHAKDPNNLFMVRLAQGLTHLGKGTLTLCPYHSDRQLMSQVAVAGLLTVLVSFLDVRNIILGKSHYVLYGLVAAMQPRMLVTFDEELRPLPVSVRVGQAVDVVGQAGKPKTITGFQTHTTPVLLAHGERAELATEEFLPVTPILEGFVILRKNPNYDL
On to B1, for which the response turned out to be 0.28 nm with GST-NUB1L, Q9Y5A7-1 and 0.25 nm with GST-RAD23, P54727.

B2: His6-RPN1 WT, Q13200 T1; T2 (protein)
chain: B1 chain with D533A, Q540R, E544R
On to B2, for which, in the assay with GST-NUB1L, Q9Y5A7-1, the response was determined as 0.18 nm.
